The chains are these.
B1: 5 (protein)
chain: YNIKSGNTANNIKYVNVLDNDRDINTHSVLPEVENVIERKDIYRQINFMETFVSSNNMMHDREKHTSNDAGSYEITGIVDGMKIGHPISVALGSQYSNYFDYLQIVHLDYTNSRFSFTVGEGKYYLRTYGSTYMTPSAIKIKVPCEKCKFINSEYSGIIKIIPYETNNNLFIYNWVLQTSSPLALENINTVFSDEADLIHGNSLSEEFKIDSSAAATSLNTFYGIVLHGIWSSEYAERLLTVISEFPDCVKMSAHDKNARSKQRKNQKWILVNEDLGSFDMKMEVCEEVNCDYSAIIHVSKHAFEYSKKLVHNRGRNGRYYSRRVEKILIRALLSLDFSLFITYFQQKHGVTLLDPQYDYELITNMAGYSSNNYQSWNHNLEELVELATSWDEYPKGLQKVQGLSYLLRRKNGAKHPVYPTAPAVAFPAGSQNNAFIEFMESAFVNYVDISHLVIHEVAHFIWVNTVSKELKEKWIQIGQWYKEPLSPSEWATKLEVEFVSAYAHDKNPAEDFAESMATYVLNSKLLNSRSFDKFKWIQDNLFGGGFYITTGTHKFDVINLGNEVYYFPGKVTRVRAKVLGSPTEDKLVKIYISLLSSDGSEGCAKHGYARIFSEQQTFRDLYFHTEDRSPCSHKLYGEFTMNKHESRGRWTAESMIFTGENNIERYVGLGSFHFYLYVNNQNEDVEKPIPLLDSISIYTHNAAETNDALLRLHVMVLENELIKEHGGPYASFAAHENKAYSYESRTYKMYPPEFNTLMLKADYFIRDINTRGFREVNMDSCKSYTNMDTRNLKCFQVLNPVTIPKYCIGSTYFLRQVSIEDIAGNLETVNIASDKYSARLHPIGVRDKQKPVVSNVRVSSKPANEYHDGETIVSLSFNVHDNLAGVYYIFVYLRDPHGGKHRSDIDRASLPTGTENKQINHKILLPKGSMGGTWMLEEIKAVDSCKNEARNIYTHSVYVQND
modifications: bait human Fc-tagged dimer
B2: 40 (protein)
chain: ISTHDTCDEWSEWSACTHGISTRKCLSDSSIKDETLVCTKCDKWGEWSECKDGRMHRKVLNCPFIKEEQECDVNNEMAEDTHMNNAYIYFNADDGDNEYEDHDDKNDDDKNYDNENDDDKNDDDKNDDDKNDDDKNDDDKNDDEENYNDAEEKVKNNDIHNSAANSNNEVTNFIQIKDKIMIKHKTTNIHPVNFIQEKYTRNNKYRSDNFAKILNNMNHINNNNYNSRSSSTSSKNARGYRGGSSNMYPHVPNYASSSVHNSANNERKSDEDLDNIEGDNIAKEERIVPINNKNYDNHDEHSNIHEHDTSRNVDNEKYNSNDDLPNLATYDYDMNNDAYKKNHMKKPMDSIKEEQTKQENNQNNEKVSSSEKQNDDISALYEHMNTKDQEHTQHEQPNDAAHGHFEDYSK
modifications: bait human Fc-tagged dimer
B3: 35 (protein)
chain: NNADINKAWKKNTYVDKKLNKLFNRALGESQVNGELASEEVKEKILDLLEEGNTLTESVDDNKNLEEAEDIKENILLSNIEEPKENIIDNLLNNIGQNSEKQESVSENVQVSDELFNELLNSVDVNGEVKENILEESQVNDDIFNSLVKSVQQEQQHNVEEKVEESVEENDEESVEENVEENVEENDDESVASSVEESIASSVDESIDSSIEENVAPTVEEIVAPTVEEIVAPSVVESVAPSVEESVEENVEESVAENVEESVAENVEESVAENVEESVAENVEESVAENVEESVAENVEEIVAPTVEESVAPTVEEIVAPSVEESVAPSVEEIVVPTVEESVAENVEEIVAPSVEEIVAPSVEEIVAPTVEESVAPTVEEIVAPSVEESVAPSVEEIVVPTVEESVAENVEESVAENVEEIVAPSVEEIVAPSVEEIVAPSVEEIVAPSVEEIVAPSVEEIVAPSVEEIVAPSVEEIVAPSVEEIVAPTVEEIVAPTVEEIVAPSVEEIVAPTVEESVAENVATNLADNLLSNLLGGIETEEIKDSILNEIEEVKENVVTTILENVEETTAESVTTFSNILEEIQENTITNDAIEEKLEELHENVLSAALENTQSEEEKKEVIDVIEEVKEEVATTLIETVEQAEEESASTITEIFENLEENAVESNENVAENLEKLNEAVFNTVLDKVEETVEISGESLENNEMDKAFFSEIFDNVKGIQENLLTGMFRSIETSIVIQSEEKVDLNENVVSSILDNIENMKEGLLNKLENIASTEGVQETVTEHVEQNVYVDVDVPAMKDQFLGILNEAGGLKEMFFNLEDVFKSESDVITVEEIKDEPVQKEVEKETVSIIEEMEENIVDVLEEEKEDLTDKMIDAVEESIEISSDSKEETESIKDKEKDVSLVVEEVQDNDMDESVEKVLELKNMEEELMKDAVEINDITSKLIEETQELNEVEADLIKDMEKLKELEKALSEDSKEIIDAKDDTLEKVIEEEHDITTTLDEVVELKDVEEDKIEKVSDLKDLEEDILKEVKEIKELESEILEDYKELKTIETDILEEKKEIEKDHFEKFEEEAEEIKDLEADILKEVSSLEVEEEKKLEEVHELKEEVEHIISGDAHIKGLEEDDLEEVDDLKGSILDMLKGDMELGDMDKESLEDVTAKLGERVESLKDVLSSALGMDEEQMKTRKKAQRPKLEEVLLKEEVKEEPKKKITKKKVRFDIKDKEPKDEIVEVEMKDEDIDEDIEEDVEEDIEEDKVEDIDEDIDEDIDEDIGEDKDEVIDLIVQKEKRIEKVKEKKKKLEKKVEEGVSGLKKHVDEVMKYVQKIDKEVDKEVSKALESKNDVTNVLKQNQDFFSKVKNFVKKYK
modifications: bait human Fc-tagged dimer
B4: 43 (protein)
chain: LFQEYQCYGSSSNTRVLNELNYDNAGTNLYNELEMNYYGKQENWYSLKKNSRSLGENDDGNNEDNEKLRKPKHKKLKQPADGNPDPNANPNVDPN
modifications: bait human Fc-tagged dimer
B5: 4 (protein)
chain: KVYQGQFYLKKNEKIHYLTKFSCNIGTCQFSIKMKLRDNIAAKLLNNYYKLNNKALKEMENDKDDGNNHNNNKYDDDNNNNNNRANKLLHMDYDNAYYVLSNQDLEYIPQRITLMQDIEQRYVNKNDKCYAFGNLKNSHMFNIPFYFKYSDLVNSKTYNLKNFINNKYSMSFNAIHSELKNNKLLQSEILNYGPILNEKNSNYAYKEIYAKTTHRVHVWFLMFDDCYDNFIRNLKLNIKTKLAYWEYLLHASKKFDISSLNDMDIKQDTSYNDFQNEETEKDIYSKENINNNNNNNMNNNMNEKKNKAIFYKSFNFDKITLLENPKRFLFLEEQFTKSEINDISFFLKYYQFKKMKNFNNMYNNLYKNGYYEQVIDYIYQNEGFHIEYEVNIFQTNKAHFSYE
modifications: bait human Fc-tagged dimer
B6: 60 (protein)
chain: GIITGKLNYFGTFSLKIFAKTYFQYKINTYSNLYSYCGISQEYNKAKSTCESCPIGTFWNSEKLLCENCQKYIENTATLKNGAKLKTDCLCSPGYEYSDKSSKCEKCKPGYYKKSVGNFICIKGCPINEKSITYGAKSYAEMDCKCIEGYYRKEDKCVLCLSNYYCPGNELIKPCDKNKISKEGVIHKNDCICKENYIKDNKNNNCVYCASIAKILGKPIYCSLCDPIYFHEDIYKNIFLLPNNIHNYGLINNIYNYDEDLSLQGNIMKYAYFHKTTNIERNFAHYINIKNIYHTFNNNINNYDYLTNSKFAIEIDIPEPKKCIFCDSGYYIKKKKCISCTTKYCEGFNHNPKACPKNSVVNKMKASSIFDCSCKRGYGILNERRNAYSNTITCQICPQNFFKHIISDDSCFPCPLYTYTLNQGATSILQCLPKKGYFIYMFKSINIDYLRYKFDINTENRIYNYFENNNKIFDEDVYNFFLNKQYSKFFYNTENK
modifications: bait human Fc-tagged dimer
B7: 68 (protein)
chain: LIRNSNTPQAFLIPELNNNEKNEFNNNEKNEMNNNLNNEFNNNEENCDIQKIAEEMMENLLNENDMYTNIMLSLQNRLSDDYLCSEPKYENICIHEKDKISLSFPCSNPKYEKLIHKFTFKKLCNSKAAFNNALLKSFIEEDEEQNTFSLMLKQFKILLTCVDDELKDIYKESIDLLVDLKTSITELTQKLWSGKMVNVLKKREFLITGILCELRNGNKAPLISKSLEFENLGILKMNNEELLNEAYNAFSDYYYFFPYFIQKLLEKGGMIERLIKIHENLAKYRTKDMVNKINAQSKGEVLNNEDILNKLNAYKHYTKHGATSFIQSREVKIVNQNVNNDDTTKNQQQNVNNNEKLNNNNNNNNNQQVNNNNNNNNQQVNNNNNNNNNQVNNNNNNNNNQVNNNNYNNNNQVNNNNNNNQQVNNNNNYNNQLNNNNFNNNLQVNKNDKHVPKNNHATATHTNNILYNPLYSINPEKPKDIIKLLKDLIKYLHIVKFENNEPTTNIDEEGIRKLLENSFFDLNDDILIVRLLLKPQTVILTVIQSFMLMTPSPSRDAKAYCKKALINDQLVPTNDANILSEENELVNNFATKYVLIYEKMKLQELKEMEESKLKMKYSKTNLAALQVTNPQNNKDKNDASNKNNNPNNAATPLIAVVTDLSGEKTEDIINNNVDIATLSVGVQNTFQGP
modifications: bait human Fc-tagged dimer
B8: 65 (peptide)
chain: MNEAKEEKTNMRNNHLSRVTIEILPSDEDNDIFDINDALLDELIGINNI
modifications: also: human Fc-tagged dimer
B9: 31 (protein)
chain: EGYICDFSSEKYNIYFDEQKDDVICYHEIYEGDSIGIIIPRYKEGNENIYIKTNCFNEVSLESSGNNALSIYDIFNDDEITLYDQDSIFYTEYISSILHIKKVKKNTYLHCVFESKDVNGLTTHKGIAKITIKNVKHNENKKLINNDVDNNAALSFKKKLTNKLVIDLLNKIDIIKDDKLNNQYNNDDNKFLVEAKPGDILYLLGVKRKNKKYLYVDQDCPLHFERIGSIYKYIFPIINEKEEIYNCALYVDDDVSTNKKIVGNLKITFVSKNPAINDINIDVLKKYIHSDIEQKLYKLLYGEISNSVNKYAEQNVDINNADISAIQFMNLNSDNCNNNECIEFFNNAACSSYCGKGYRLLNGNNHMYDEQMVVPCYNGECKPEDEIEP
modifications: bait human Fc-tagged dimer
B10: 49 (protein)
chain: SDSYSTGGNEKEKIFMDNYKYMWTYIYFLQKRIMMKKLSHPLYMSKKFILLHNPKDIEEFRIPLKDTLWSYVDRNSIKGFININLDSIFDIDLKEYYVHDKENMANSEKSEDLECIDAYVQKTNEIYYNMADTKDEAYIFICKKCKHIYKDIKECREKSMQLMIQNMKITVPQIRLKYDKKNRNNEEIIINIPVTYVLSNLLSSLKKTVTYNTDDLNNACNVLIKMLHLDLLKILYNLQYHNGIFNGITEKYLIEFRNIFVKRQKTNTEDNNDMIWEECFVLKKSIDKIMNINSFLLTKSRNRYMDYLQNRRKRYRDILFMITYNVADMNLNTYIKSIYNYIHISTKIIEDIQYIYNQEVYATFFVRTELIETYLLRNPKQLKNTCSIYIMITISWFFNQINIGMYNKNKNVYDLFKEKFSKSNVKQIINSIYTNNVENKANILQICNDAMTNTIELIKKVIKNYYKQNNVLSNYNINFAGLIKFIDIQILRMKFIQSTLEKQPLIEYDTLNDDHLNNDAIIKRENMVCMMKYISNKINTYISLLKKSDLQTIMLQNYDKYNIYLDTYFTHNENVFFCSSPGQYLIIKIFFYSFFNILNIYG
modifications: bait human Fc-tagged dimer

No end group written: not given here.

For the experiment, the target named is FGFR4 ectodomain (Homo sapiens, UniProt P22455). Description: AVEXIS normalised luminescence.
Molecule B1 gave a binding score of 0.798.
For the molecule B2, the binding score was determined as 1.75.
For B3, the binding score came out at 0.753.
Then B4, with 1.37.
Take B5: the binding score is 0.9.
For the molecule B6, the binding score amounted to 0.959.
With B7 the figure was 0.952.
In turn, B8 came in with a binding score of 1.05.
Molecule B9 registered a binding score of 1.28.
B10 showed a binding score of 0.996.

These data come from paper PMC11098746 (2024).
